Source: patent US20260055148A1 (USTAV ORGANICKE CHEMIE A BIOCHEMIE AV CR V V I, published 2026)

Biological target: T1, His-C3d-Avi, biotinylated (human complement C3d with N-terminal His-tag and C-terminal Avi-tag) (human, UniProt P01024 996-1303, site-specific biotinylation of the C-terminal Avi-tag)
T1 construct: domain: C3d; SPR ligand for the ISG65 mutants; not shown: N-terminal His-tag (pET15b); C-terminal Avi-tag
Test: SPR, biotinylated C3d-Avi immobilised, ISG65 Y293A as analyte

T1 sequence (P01024 996-1303 limits assumed): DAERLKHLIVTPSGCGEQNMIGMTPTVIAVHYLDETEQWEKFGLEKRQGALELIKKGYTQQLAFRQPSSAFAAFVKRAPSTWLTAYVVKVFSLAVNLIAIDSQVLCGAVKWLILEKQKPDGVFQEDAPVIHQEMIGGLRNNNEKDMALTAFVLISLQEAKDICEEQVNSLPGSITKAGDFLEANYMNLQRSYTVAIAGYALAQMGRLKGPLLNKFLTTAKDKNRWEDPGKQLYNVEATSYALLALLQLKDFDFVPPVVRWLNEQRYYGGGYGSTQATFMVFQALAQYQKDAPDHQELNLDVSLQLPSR

B1: His-ISG65 18-363 Y293A (receptor)
chain: MGSSHHHHHHSSGLVPRGSHMLLVIGSEDNRVPGDKKLTKEGAAALCKMKHLADKVAKERSQELKDRTQNFAGYIEFELYRIDYWLEKLNGPKGRKDGYAKLSDSDIEKVKEIFNKAKDGITKQLPEAKKAGEEAGKLHTEVKKAAENARGQDLDDDTAKSTGLYRVLNWYCITKEERHNATPNCDGIQFRKHYLSVNRSAIDCSSTSYEENYDWSANALQVALNSWEDVKPKKLESAGSDKNCNIGQSSESHPCTMTEEWQTPYKETVEKLRELEDAYQRGKKAHDAMLGYANTAAAVNTKVEQEKPLTEVIAAAKEAGKKGAKIIIPAAAPATPTNSTKNDDSAPTEHVDRGIATNETQVEVGID
notes: also called ISG65 Y293A
Question: Does B1 bind?
Answer: no binding (tested: ISG65 1.5-100 nM)
